Measurements as given in article PMC9638900.

Assays:
PLE2 IntS12A = molecular target: T1, PLE2 IntS12A (Vibrio cholerae PLE2 (satellite), UniProt M1T311 1-630, S12A); assay: EMSA
T1 sequence: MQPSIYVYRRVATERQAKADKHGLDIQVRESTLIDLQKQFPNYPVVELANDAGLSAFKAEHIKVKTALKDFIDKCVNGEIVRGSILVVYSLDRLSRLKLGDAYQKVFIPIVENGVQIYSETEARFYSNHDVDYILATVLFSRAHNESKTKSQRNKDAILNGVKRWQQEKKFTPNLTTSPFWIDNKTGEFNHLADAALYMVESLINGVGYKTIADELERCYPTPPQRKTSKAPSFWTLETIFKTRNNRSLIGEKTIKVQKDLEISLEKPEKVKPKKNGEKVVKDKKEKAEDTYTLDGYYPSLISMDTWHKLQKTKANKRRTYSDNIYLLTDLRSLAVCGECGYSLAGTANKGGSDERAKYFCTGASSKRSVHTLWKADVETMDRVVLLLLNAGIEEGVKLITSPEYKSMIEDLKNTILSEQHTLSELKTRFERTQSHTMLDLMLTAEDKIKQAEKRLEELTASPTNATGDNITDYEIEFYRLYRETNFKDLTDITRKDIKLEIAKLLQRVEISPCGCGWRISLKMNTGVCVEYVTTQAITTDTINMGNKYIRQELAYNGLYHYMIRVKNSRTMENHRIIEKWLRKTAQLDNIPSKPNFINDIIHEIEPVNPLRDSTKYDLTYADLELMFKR

[1] = molecular target: T2, PLE2 Int (large serine recombinase) (Vibrio cholerae PLE2 (satellite), UniProt M1T311 1-630); assay: EMSA
T2 sequence: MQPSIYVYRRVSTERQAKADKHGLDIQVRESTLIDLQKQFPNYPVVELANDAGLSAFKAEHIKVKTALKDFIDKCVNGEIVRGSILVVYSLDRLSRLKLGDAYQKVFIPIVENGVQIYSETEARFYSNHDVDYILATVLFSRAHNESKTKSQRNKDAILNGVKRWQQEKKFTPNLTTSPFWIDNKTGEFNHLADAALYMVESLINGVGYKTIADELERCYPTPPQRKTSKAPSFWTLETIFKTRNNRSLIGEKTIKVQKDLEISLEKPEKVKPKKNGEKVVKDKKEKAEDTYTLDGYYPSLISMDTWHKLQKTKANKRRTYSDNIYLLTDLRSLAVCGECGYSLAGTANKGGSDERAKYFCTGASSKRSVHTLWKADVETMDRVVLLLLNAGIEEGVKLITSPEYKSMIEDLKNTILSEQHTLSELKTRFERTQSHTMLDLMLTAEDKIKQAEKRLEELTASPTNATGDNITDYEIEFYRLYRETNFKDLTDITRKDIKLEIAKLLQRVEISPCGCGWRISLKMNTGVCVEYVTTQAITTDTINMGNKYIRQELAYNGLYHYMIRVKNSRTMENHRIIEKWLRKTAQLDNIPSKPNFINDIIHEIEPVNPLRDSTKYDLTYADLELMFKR

B1: PLE2 attP EMSA probe (MN262/MN263) (dsDNA)
DNA 1: GATAGGTCATTTTATACTTCTGACAAAGTTACATATGACTTGCATTAGTG
DNA 2: CACTAATGCAAGTCATATGTAACTTTGTCAGAAGTATAAAATGACCTATC
binding result (PLE2 IntS12A): binds
binding result [1]: binds
